Article PMC5449618 (Nucleic Acids Research, 2017)

Target: GST-fused HBO1 MYST domain (residues 336–611) (human, UniProt O95251 336-611)
Test: pull-down

Chain of GST-fused HBO1 MYST domain (residues 336–611) (O95251 336-611): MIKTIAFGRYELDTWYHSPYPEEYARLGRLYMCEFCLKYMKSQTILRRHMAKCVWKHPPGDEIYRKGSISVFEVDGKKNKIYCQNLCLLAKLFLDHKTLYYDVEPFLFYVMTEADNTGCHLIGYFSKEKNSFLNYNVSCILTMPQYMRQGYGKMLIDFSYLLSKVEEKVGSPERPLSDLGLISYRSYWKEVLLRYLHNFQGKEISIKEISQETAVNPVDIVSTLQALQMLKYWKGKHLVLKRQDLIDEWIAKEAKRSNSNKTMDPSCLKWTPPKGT

Binder | binding result
MVEIEIEGRLHRISIFDPLEIILEDDLT (domain or fragment, human, UniProt O95696 39-66, looked up) [Sumo–BRPF2 (39–66)] | binds
Sumo–BRPF2 (1–80) (domain or fragment, human, UniProt O95696 1-80, looked up) MRRKGRCHRGSAARHPSSPCSVKHSPTRETLTYAQAQRMVEIEIEGRLHRISIFDPLEIILEDDLTAQEMSECNSNKENS | binds
LTYAQAQRMVEIEIEGRLHRISIFDPLEIILE (domain or fragment, human, UniProt O95696 31-62, looked up) [Sumo–BRPF2 (31–62)] | binds

Results, then the binder that gave them:

binding result | Binder
binds | Sumo–BRPF2 (1–205) (domain or fragment, human, UniProt O95696 1-205, looked up) MRRKGRCHRGSAARHPSSPCSVKHSPTRETLTYAQAQRMVEIEIEGRLHRISIFDPLEIILEDDLTAQEMSECNSNKENSERPPVCLRTKRHKNNRVKKKNEALPSAHGTPASASALPEPKVRIVEYSPPSAPRRPPVYYKFIEKSAEELDNEVEYDMDEEDYAWLEIVNEKRKGDCVPAVSQSMFEFLMDRFEKESHCENQKQG
binds | LTYAQAQRMVAIAIAGRLHRISIFDPLEIILEDDLTAQEMSECNSNKENS (domain or fragment, human, UniProt O95696 31-80, looked up) [Sumo–BRPF2 (31–80) E41A/E43A/E45A]
binds | LTYAQAQRMVEIEIEGRLHRISIFDPLEIILAAALTAQEMSECNSNKENS (domain or fragment, human, UniProt O95696 31-80, looked up) [Sumo–BRPF2 (31–80) E62A/D63A/D64A]
binds | LTYAQAQRMVKIKIKGRLHRISIFDPLEIILEDDLTAQEMSECNSNKENS (domain or fragment, human, UniProt O95696 31-80, looked up) [Sumo–BRPF2 (31–80) E41K/E43K/E45K]
binds | LTYAQAQRMVEIEIEGRLHRISIFDPLEIILKKKLTAQEMSECNSNKENS (domain or fragment, human, UniProt O95696 31-80, looked up) [Sumo–BRPF2 (31–80) E62K/D63K/D64K]
binds | MVEIEIEGRLHRISIFDPLEIILE (domain or fragment, human, UniProt O95696 39-62, looked up) [Sumo–BRPF2 (39–62)]

Target: HBO1 MYST domain (residues 336–611), without tag, co-expressed with BRPF2 (human, UniProt O95251 336-611)
Sequence (O95251 336-611): as the sequence (O95251 336-611) above
Test: crystal structure

stoichiometry N | Binder
1 | LTYAQAQRMVEIEIEGRLHRISIFDPLEIILEDDLTAQEMSECNSNKENS (domain or fragment, human, UniProt O95696 31-80, looked up) [BRPF2 (31–80), His6 tag removed, co-expressed with the HBO1 MYST domain]
